Reference: paper PMC10786891, “Massively parallel profiling of RNA-targeting CRISPR-Cas13d”
Residue numbers refer to the chain shown, from its start. Numbers in names are those of the source.

T1: EsCas13d, nuclease-dead (Eubacterium siraeum, UniProt B0MS50, R295A;H300A;R849A;H854A)
T1 sequence: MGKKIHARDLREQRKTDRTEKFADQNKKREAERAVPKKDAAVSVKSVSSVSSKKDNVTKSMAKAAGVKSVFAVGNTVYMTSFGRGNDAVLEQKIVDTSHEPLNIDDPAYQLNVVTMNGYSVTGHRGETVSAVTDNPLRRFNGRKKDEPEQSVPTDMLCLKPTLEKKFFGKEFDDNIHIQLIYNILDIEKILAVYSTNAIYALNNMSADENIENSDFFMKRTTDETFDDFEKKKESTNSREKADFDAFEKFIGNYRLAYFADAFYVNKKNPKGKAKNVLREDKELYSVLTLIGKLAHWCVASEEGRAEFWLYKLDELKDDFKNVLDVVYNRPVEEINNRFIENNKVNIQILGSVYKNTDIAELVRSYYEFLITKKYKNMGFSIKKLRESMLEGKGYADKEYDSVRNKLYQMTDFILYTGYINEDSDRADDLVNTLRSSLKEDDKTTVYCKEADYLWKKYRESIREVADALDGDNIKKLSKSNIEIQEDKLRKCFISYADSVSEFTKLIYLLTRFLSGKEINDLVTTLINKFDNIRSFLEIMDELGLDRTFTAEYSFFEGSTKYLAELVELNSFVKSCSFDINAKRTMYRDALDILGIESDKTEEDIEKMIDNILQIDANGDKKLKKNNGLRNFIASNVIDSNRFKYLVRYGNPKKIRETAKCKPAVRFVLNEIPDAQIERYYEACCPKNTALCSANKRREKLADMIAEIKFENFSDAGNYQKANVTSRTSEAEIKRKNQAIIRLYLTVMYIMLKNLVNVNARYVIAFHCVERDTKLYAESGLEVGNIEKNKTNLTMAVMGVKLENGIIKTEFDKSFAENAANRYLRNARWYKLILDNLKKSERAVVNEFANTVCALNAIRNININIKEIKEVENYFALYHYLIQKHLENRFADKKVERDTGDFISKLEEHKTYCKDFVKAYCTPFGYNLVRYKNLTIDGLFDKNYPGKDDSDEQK

B1: target 1 insG 3' of 20,insU 3' of 7 (mixed)
RNA 1: CACCCGUGCAAAAAUGCAGGGGUCUAAAACUGAGCGGAUAACCUCUCUAUGG
RNA 2: GGGAAUGGAUCCACAUCUACGAAUUCGUACCAGUAGAGAGGUUAUCUCGCUCACCGAGAUCGGAAGAGCACACGU
B2: target 1 complement block 1-14 (mixed)
RNA 1: B1 RNA 1
RNA 2: GGGAAUGGAUCCACAUCUACGAAUUCGUACCAUAGAGUCCAAUAGGCGAGUCCGAGAUCGGAAGAGCACACGU
B3: target 1 insU 3' of 13,insG 3' of 7 (mixed)
RNA 1: B1 RNA 1
RNA 2: B1 RNA 2 with G33U, U34A, A35G, G36A, A37G, G38A, A39G, G40U, U47G
B4: target 1 U11G,A16U (mixed)
RNA 1: B1 RNA 1
RNA 2: GGGAAUGGAUCCACAUCUACGAAUUCGUACCAUAGUGAGGGUAUCCGCUCACCGAGAUCGGAAGAGCACACGU
B5: target 1 U3A,C7G (mixed)
RNA 1: B1 RNA 1
RNA 2: B4 RNA 2 with U36A, G41U, C45G, U49A
B6: target 2 MT 5'PFS AUG 3'PFS CCA (mixed)
RNA 1: CACCCGUGCAAAAUUGCAGGGGUCUAAAACCUUCUCCAAAUUGUUUCAUCCU
RNA 2: GGGAAUGGAUCCACAUCUACGAAUUCAUGAGGAUGAAACAAUUUGGAGAAGCCAAGAUCGGAAGAGCACACGU
B7: target 2 MT 5'PFS AAU 3'PFS AAC (mixed)
RNA 1: B6 RNA 1
RNA 2: B6 RNA 2 with U28A, G29U, C52A, C53A, A54C
B8: target 2 MT 5'PFS UUA 3'PFS AAC (mixed)
RNA 1: B6 RNA 1
RNA 2: B6 RNA 2 with A27U, G29A, C52A, C53A, A54C
B9: target 2 MT 5'PFS AAU 3'PFS AAA (mixed)
RNA 1: B6 RNA 1
RNA 2: B6 RNA 2 with U28A, G29U, C52A, C53A
B10: target 2 MT 5'PFS GAA 3'PFS CGG (mixed)
RNA 1: B6 RNA 1
RNA 2: B6 RNA 2 with A27G, U28A, G29A, C53G, A54G
B11: target 2 MT 5'PFS GUG 3'PFS CGA (mixed)
RNA 1: B6 RNA 1
RNA 2: B6 RNA 2 with A27G, C53G
B12: target 2 MT 5'PFS CAG 3'PFS CCA (mixed)
RNA 1: B6 RNA 1
RNA 2: B6 RNA 2 with A27C, U28A
B13: target 2 MT 5'PFS CUU 3'PFS CCC (mixed)
RNA 1: B6 RNA 1
RNA 2: B6 RNA 2 with A27C, G29U, A54C
B14: target 2 MT 5'PFS UUA 3'PFS AAA (mixed)
RNA 1: B6 RNA 1
RNA 2: B6 RNA 2 with A27U, G29A, C52A, C53A
B15: target 2 MT 5'PFS AAU 3'PFS AAG (mixed)
RNA 1: B6 RNA 1
RNA 2: B6 RNA 2 with U28A, G29U, C52A, C53A, A54G
B16: target 2 MT 5'PFS UGC 3'PFS CGA (mixed)
RNA 1: B6 RNA 1
RNA 2: B6 RNA 2 with A27U, U28G, G29C, C53G
B17: target 2 MT 5'PFS UAU 3'PFS AUG (mixed)
RNA 1: B6 RNA 1
RNA 2: B6 RNA 2 with A27U, U28A, G29U, C52A, C53U, A54G
B18: target 2 MT 5'PFS UUA 3'PFS AAG (mixed)
RNA 1: B6 RNA 1
RNA 2: B6 RNA 2 with A27U, G29A, C52A, C53A, A54G
B19: target 2 MT 5'PFS UGC 3'PFS CGG (mixed)
RNA 1: B6 RNA 1
RNA 2: B6 RNA 2 with A27U, U28G, G29C, C53G, A54G
B20: target 2 MT 5'PFS AAU 3'PFS AAU (mixed)
RNA 1: B6 RNA 1
RNA 2: B6 RNA 2 with U28A, G29U, C52A, C53A, A54U
B21: target 2 MT 5'PFS AGG 3'PFS AAA (mixed)
RNA 1: B6 RNA 1
RNA 2: B6 RNA 2 with U28G, C52A, C53A
B22: target 2 MT 5'PFS UGA 3'PFS CAC (mixed)
RNA 1: B6 RNA 1
RNA 2: B6 RNA 2 with A27U, U28G, G29A, C53A, A54C
B23: target 2 MT 5'PFS AAU 3'PFS CCA (mixed)
RNA 1: B6 RNA 1
RNA 2: B6 RNA 2 with U28A, G29U
B24: target 2 MT 5'PFS GUG 3'PFS CGC (mixed)
RNA 1: B6 RNA 1
RNA 2: B6 RNA 2 with A27G, C53G, A54C
B25: target 2 MT 5'PFS UAU 3'PFS UCU (mixed)
RNA 1: B6 RNA 1
RNA 2: B6 RNA 2 with A27U, U28A, G29U, C52U, A54U
B26: target 2 MT 5'PFS GUG 3'PFS CGG (mixed)
RNA 1: B6 RNA 1
RNA 2: B6 RNA 2 with A27G, C53G, A54G
B27: target 2 MT 5'PFS CUU 3'PFS CCA (mixed)
RNA 1: B6 RNA 1
RNA 2: B6 RNA 2 with A27C, G29U
B28: target 2 MT 5'PFS UAG 3'PFS AUU (mixed)
RNA 1: B6 RNA 1
RNA 2: B6 RNA 2 with A27U, U28A, C52A, C53U, A54U
B29: target 2 MT 5'PFS GCU 3'PFS CUG (mixed)
RNA 1: B6 RNA 1
RNA 2: B6 RNA 2 with A27G, U28C, G29U, C53U, A54G
B30: target 2 MT 5'PFS AUG 3'PFS CGC (mixed)
RNA 1: B6 RNA 1
RNA 2: B6 RNA 2 with C53G, A54C
B31: target 2 MT 5'PFS GUG 3'PFS CGU (mixed)
RNA 1: B6 RNA 1
RNA 2: B6 RNA 2 with A27G, C53G, A54U
B32: target 2 MT 5'PFS GAA 3'PFS CGA (mixed)
RNA 1: B6 RNA 1
RNA 2: B6 RNA 2 with A27G, U28A, G29A, C53G
B33: target 2 MT 5'PFS UAU 3'PFS AUU (mixed)
RNA 1: B6 RNA 1
RNA 2: B6 RNA 2 with A27U, U28A, G29U, C52A, C53U, A54U
B34: target 2 MT 5'PFS UGC 3'PFS CGC (mixed)
RNA 1: B6 RNA 1
RNA 2: B6 RNA 2 with A27U, U28G, G29C, C53G, A54C
B35: target 2 MT 5'PFS GAA 3'PFS AUU (mixed)
RNA 1: B6 RNA 1
RNA 2: B6 RNA 2 with A27G, U28A, G29A, C52A, C53U, A54U
B36: target 2 MT 5'PFS GAA 3'PFS CGC (mixed)
RNA 1: B6 RNA 1
RNA 2: B6 RNA 2 with A27G, U28A, G29A, C53G, A54C
B37: target 2 MT 5'PFS UAU 3'PFS AUA (mixed)
RNA 1: B6 RNA 1
RNA 2: B6 RNA 2 with A27U, U28A, G29U, C52A, C53U

Biological target: T1, EsCas13d, nuclease-dead
Assay: crRNA (strand 1, pre-loaded); Mg2+; 40 mM Tris-HCl pH 7.5, 150 mM NaCl, 6 mM MgCl2, 1 mM DTT, 0.1% Tween-20, 0.2 mg/ml BSA; 25 C; 10 min per concentration, then washed
Conditions: tags: His6-TwinStrep-SUMO cleaved; N-terminal SNAP kept (SNAP-Surface 488); label: 3' end held by stalled T7 RNA polymerase

| Binder | Kd [nM] |
| --- | --- |
| B1 | 90 ± 40 |
| B2 | ~100 |
| B3 | 9.5 ± 0.5 |
| B4 | 82 ± 12 |
| B5 | 6.64 ± 0.29 |
| B6 | 23.7 ± 3.5 |
| B7 | 5.2 ± 0.8 |
| B8 | 18.7 ± 3.1 |
| B9 | 3.2 ± 0.5 |
| B10 | 9.6 ± 1.5 |
| B11 | 12.8 ± 1.6 |
| B12 | 10.1 ± 1.4 |
| B13 | 18 ± 9 |
| B14 | 14.6 ± 2.7 |
| B15 | 5.5 ± 0.9 |
| B16 | ~48 |
| B17 | 45 ± 9 |
| B18 | 17.5 ± 1.8 |
| B19 | 38 ± 6 |

| Binder | Kd [nM] |
| --- | --- |
| B20 | 4.1 ± 0.6 |
| B21 | 4.3 ± 0.9 |
| B22 | 15 ± 4 |
| B23 | 24 ± 12 |
| B24 | 9.5 ± 0.4 |
| B25 | 81 ± 23 |
| B26 | 12.5 ± 1 |
| B27 | 8.9 ± 1.1 |
| B28 | 2.93 ± 0.34 |
| B29 | 30 ± 11 |
| B30 | 8.1 ± 0.8 |
| B31 | 14.7 ± 1.3 |
| B32 | 9.2 ± 1.7 |
| B33 | 24.8 ± 2.3 |
| B34 | 66 ± 11 |
| B35 | 7.3 ± 1.1 |
| B36 | 7.4 ± 0.5 |
| B37 | 41 ± 7 |
